From PMC3060920, “Structural Analysis of a Repetitive Protein Sequence Motif in Strepsirrhine Primate Amelogenin” (PLoS ONE, 2011)

Biological target: the molecule itself
Assay: dynamic light scattering; self-assembly into nanospheres; 0.4 mg/mL, pH 8, 25 mM Tris buffer, 22°C; Rayleigh sphere model, sphere-equivalent hydrodynamic radii

B1: rp(H)M180, recombinant His-tagged mouse amelogenin M180 (natural protein, UniProt P63277-1 17-196, looked up)
chain: MPLPPHPGSPGYINLSYEVLTPLKWYQSMIRQPYPSYGYEPMGGWLHHQIIPVLSQQHPPSHTLQPHHHLPVVPAQQPVAPQQPMMPVPGHHSMTPTQHHQPNIPPSAQQPFQQPFQPQAIPPQSHQPMQPQSPLHPMQPLAPQPPLPPLFSMQPLSPILPELPLEAWPATDKTKREEVD
notes: Assembles into nanospheres at pH 8; also called wild type mouse amelogenin; mAmelx; source: E. coli (pQE30), purified (Ni-NTA); not shown: poly-histidine, N-terminal, kept
binding result: binds
